Paper PMC4108476

Target: T1, [2Fe-2S]-IscR wild type (Escherichia coli, UniProt P0AGK8 1-162)
T1 sequence: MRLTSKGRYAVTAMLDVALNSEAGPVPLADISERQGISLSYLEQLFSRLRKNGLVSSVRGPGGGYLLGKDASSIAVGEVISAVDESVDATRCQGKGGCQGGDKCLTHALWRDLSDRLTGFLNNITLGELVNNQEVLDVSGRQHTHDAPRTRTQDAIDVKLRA
Test: fluorescence anisotropy

B1: PiscR site B 30-mer (dsDNA)
DNA 1: AAATAGTTGACCAATTTACTCGGGAATGTC
DNA 2: GACATTCCCGAGTAAATTGGTCAACTATTT
Kd: 112 ± 2 nM
